The target in this assay is CaM-agarose (Sigma), P62157. In words: pull-down; CaM-agarose (Sigma) incubated with HEK293 lysate expressing a V5-His-tagged TRP channel; 20 mM Tris-HCl pH 7.4, 150 mM NaCl, 1% NP-40, 4 °C; 1 mM Ca2+ (Fig. 2A) or 2 mM Ca2+ (Fig. 2B); blot with anti-V5. To be noted: remark: other sources report otherwise.

The results in this text go back to article PMC5362816.

B1: TRPM8 (V5-His tagged), Q8R455 1-1104 (natural protein)
chain: MSFEGARLSMRSRRNGTLGSTRTLYSSVSRSTDVSYSESDLVNFIQANFKKRECVFFTRDSKAMESICKCGYAQSQHIEGTQINQNEKWNYKKHTKEFPTDAFGDIQFETLGKKGKYLRLSCDTDSETLYELLTQHWHLKTPNLVISVTGGAKNFALKPRMRKIFSRLIYIAQSKGAWILTGGTHYGLMKYIGEVVRDNTISRNSEENIVAIGIAAWGMVSNRDTLIRNCDDEGHFSAQYIMDDFMRDPLYILDNNHTHLLLVDNGCHGHPTVEAKLRNQLEKYISERTSQDSNYGGKIPIVCFAQGGGRETLKAINTSVKSKIPCVVVEGSGQIADVIASLVEVEDVLTSSMVKEKLVRFLPRTVSRLPEEEIESWIKWLKEILESPHLLTVIKMEEAGDEVVSSAISYALYKAFSTNEQDKDNWNGQLKLLLEWNQLDLASDEIFTNDRRWESADLQEVMFTALIKDRPKFVRLFLENGLNLQKFLTNEVLTELFSTHFSTLVYRNLQIAKNSYNDALLTFVWKLVANFRRSFWKEDRSSREDLDVELHDASLTTRHPLQALFIWAILQNKKELSKVIWEQTKGCTLAALGASKLLKTLAKVKNDINAAGESEELANEYETRAVELFTECYSSDEDLAEQLLVYSCEAWGGSNCLELAVEATDQHFIAQPGVQNFLSKQWYGEISRDTKNWKIILCLFIIPLVGCGLVSFRKKPIDKHKKLLWYYVAFFTSPFVVFSWNVVFYIAFLLLFAYVLLMDFHSVPHTPELILYALVFVLFCDEVRQWYMNGVNYFTDLWNVMDTLGLFYFIAGIVFRLHSSNKSSLYSGRVIFCLDYIIFTLRLIHIFTVSRNLGPKIIMLQRMLIDVFFFLFLFAVWMVAFGVARQGILRQNEQRWRWIFRSVIYEPYLAMFGQVPSDVDSTTYDFSHCTFSGNESKPLCVELDEYNLPRFPEWITIPLVCIYMLSTNILLVNLLVAMFGYTVGIVQENNDQVWKFQRYFLVQEYCNRLNIPFPFVVFAYFYMVVKKCFKCCCKEKNTESSACCFRNEDNETLAWEGVMKENYLVKINTKANDNAEEMRHRFRQLDTKLNDLKGLLKEIANKIK
modifications: here or on the partner: coupled to agarose
For B1, the relative binding to CaM (normalized by total input) was 0.9.

B2: TRPV2 (V5-His tagged), Q9WUD2 1-761 (natural protein)
chain: MTSASSPPAFRLETSDGDEEGNAEVNKGKQEPPPMESPFQREDRNSSPQIKVNLNFIKRPPKNTSAPSQQEPDRFDRDRLFSVVSRGVPEELTGLLEYLRWNSKYLTDSAYTEGSTGKTCLMKAVLNLQDGVNACIMPLLQIDKDSGNPKLLVNAQCTDEFYQGHSALHIAIEKRSLQCVKLLVENGADVHLRACGRFFQKHQGTCFYFGELPLSLAACTKQWDVVTYLLENPHQPASLEATDSLGNTVLHALVMIADNSPENSALVIHMYDGLLQMGARLCPTVQLEEISNHQGLTPLKLAAKEGKIEIFRHILQREFSGPYQPLSRKFTEWCYGPVRVSLYDLSSVDSWEKNSVLEIIAFHCKSPNRHRMVVLEPLNKLLQEKWDRLVSRFFFNFACYLVYMFIFTVVAYHQPSLDQPAIPSSKATFGESMLLLGHILILLGGIYLLLGQLWYFWRRRLFIWISFMDSYFEILFLLQALLTVLSQVLRFMETEWYLPLLVLSLVLGWLNLLYYTRGFQHTGIYSVMIQKVILRDLLRFLLVYLVFLFGFAVALVSLSREARSPKAPEDNNSTVTEQPTVGQEEEPAPYRSILDASLELFKFTIGMGELAFQEQLRFRGVVLLLLLAYVLLTYVLLLNMLIALMSETVNHVADNSWSIWKLQKAISVLEMENGYWWCRRKKHREGRLLKVGTRGDGTPDERWCFRVEEVNWAAWEKTLPTLSEDPSGPGITGNKKNPTSKPGKNSASEEDHLPLQVLQSP
modifications: here or on the partner: coupled to agarose
In the case of B2, the relative binding to CaM (normalized by total input) is 0.8.
